# Experimental data from patent US6033823A, “Mutated penicillin G acylase genes” (priority 1994, dated 2000).
# Assays:
# Type in all cases: biochemical, Alcaligenes faecalis
# [1] = substrate: NC(=O)[C@H](N)c1ccccc1; test: Deacylation kinetics and phenylacetic acid product inhibition, wild type PenG acylase; conditions: other: wild type; 20 mM NaH2PO4, pH 7.0, 37° C.; pH 7.0; 37.0 °C
# Method: (§1) In order to determine enzymatic activity the acylases were incubated with substrate at room temperature in buffered solution. In case β-lactamase impurity was expected to be present in the enzyme preparations, 1.0 mM -lactamase inhibitor 6-bromo-penicillanic acid was added to the assay. The reactions were stopped by adding an excess PMSF. For some mutants which were less sensitive to PMSF inhibition, the reactions were stopped by adding 0.5 M HCl or 0.5 M acetic acid until the pH was between 3 and 4. When reactions were subsequently analysed by HPLC, the reactions were stopped by dilution with the correponding elution solvent (see table 1). In addition substrates were incubated under assay conditions in absence of enzyme. If necessary enzyme assays were corrected for non-enzymatic hydrolysis
# (§2) The composition of the reaction mixtures was determined by high-performanceliquid chromatography (HPLC)(table 1). Concentrations were determined by using standards of known concentration.
# (§3) In a continuous assay Penicillin G acylase was assayed spectro-fotometrically with the chromogenic substrate NIPAB [6-nitro-3-phenylacetamido-benzoic acid]. The liberation of 3-amino-6-nitrobenzoic acid was monitored by measuring the extinction at 405 nm in a Kontron 610 kinetic spectrofotometer. […] Initial rate measurements were performed with varying concentration of NIPAB.
# (§4) The kinetics of enzymatic hydrolysis of PenG, PenV, CefG were also studied by alkaline titration (0, OlM KOH), using a Radiometer pH-stat. All experiments were carried out in a buffer free medium.
# (§5) Initial rate measurements were performed with excess substrate over the enzyme. Catalytic parameters were derived from least-squares fitting of the measured initial rates plotted for various substrate concentrations according to the Michaelis-Menten equation.
# (§6) The complete conversion of NIPAB was followed as a funtion of time at 20, 50 and 100 μM NIPAB by following the increase in absorbtion at 405 nm. Products of this conversion are phenylacetic acid and 3-amino-6-nitrobenzoic acid. […] The progress curves of the deacylation of NIPAB could be fitted very well when product inhibition by phenylacetic acid was taken into account. The dissociation constants (usually referred to as inhibition constant Ki) for phenylacetic acid which could be derived from the progress curves is shown in table 11. For these mutants the yield of the conversion in a fixed time span is higher than for wild type. Alternatively, in order to obtain a certain yield a shorter conversion time is needed for the mutants.
# [2] = substrate: CC1=C(C(=O)O)N2C(=O)[C@@H](NC(=O)Cc3ccccc3)[C@H]2SC1; test: as above; conditions: other: wild type; 20 mM NaH2PO4, pH 7.5, 37° C.; pH 7.5; 37.0 °C
# Method: as §1, §2, §3, §4, §5, §6
# [3] = substrate: CC1(C)S[C@@H]2[C@H](NC(=O)[C@H](N)c3ccccc3)C(=O)N2[C@H]1C(=O)O; test: as above; conditions: other: wild type; 20 mM NaH2PO4, pH 7.0, 37° C.; pH 7.0; 37.0 °C
# Method: as §1, §2, §3, §4, §5, §6
# [4] = substrate: CC1(C)S[C@@H]2[C@H](NC(=O)Cc3ccccc3)C(=O)N2[C@H]1C(=O)O; test: as above; conditions: other: wild type; 40 mM NaH2PO4, pH 7.5, 37° C.; pH 7.5; 37.0 °C
# Method: as §1, §2, §3, §4, §5, §6
# [5] = substrate: CC1(C)S[C@@H]2[C@H](NC(=O)[C@H](N)c3ccc(O)cc3)C(=O)N2[C@H]1C(=O)O; test: as above; conditions: other: wild type; 20 mM NaH2PO4, pH 7.0, 37° C.; pH 7.0; 37.0 °C
# Method: as §1, §2, §3, §4, §5, §6
# [6] = substrate: O=C(Cc1ccccc1)Nc1ccc([N+](=O)[O-])c(C(=O)O)c1; test: as above; conditions: other: wild type; 0.1M NaH2PO4, pH 7.5, 25° C.; pH 7.5; 25.0 °C
# Method: as §1, §2, §3, §4, §5, §6
# [7] = substrate: CC1(C)S[C@@H]2[C@H](NC(=O)COc3ccccc3)C(=O)N2[C@H]1C(=O)O; test: as above; conditions: other: wild type; 40 mM NaH2PO4, pH 7.5, 37° C.; pH 7.5; 37.0 °C
# Method: as §1, §2, §3, §4, §5, §6
# [8] = substrate: NC(=O)[C@H](N)c1ccccc1; test: Deacylation kinetics and phenylacetic acid product inhibition, mutant B:L56K; conditions: other: B:L56K; 20 mM NaH2PO4, pH 7.0, 37° C.; pH 7.0; 37.0 °C
# Method: as §1, §2
# as §3, with “NIPAB. […]” for “NIPAB.”
# as §5, §6
# [9] = substrate: CC1=C(C(=O)O)N2C(=O)[C@@H](NC(=O)Cc3ccccc3)[C@H]2SC1; test: as above; conditions: other: B:L56K; 20 mM NaH2PO4, pH 7.5, 37° C.; pH 7.5; 37.0 °C
# Method: as §1, §2
# as §3, with “NIPAB. […]” for “NIPAB.”
# as §5, §6
# [10] = substrate: CC1(C)S[C@@H]2[C@H](NC(=O)[C@H](N)c3ccccc3)C(=O)N2[C@H]1C(=O)O; test: as above; conditions: other: B:L56K; 20 mM NaH2PO4, pH 7.0, 37° C.; pH 7.0; 37.0 °C
# Method: as §1, §2
# as §3, with “NIPAB. […]” for “NIPAB.”
# as §5, §6
# [11] = substrate: CC1(C)S[C@@H]2[C@H](NC(=O)Cc3ccccc3)C(=O)N2[C@H]1C(=O)O; test: as above; conditions: other: B:L56K; 40 mM NaH2PO4, pH 7.5, 37° C.; pH 7.5; 37.0 °C
# Method: as §1, §2
# as §3, with “NIPAB. […]” for “NIPAB.”
# as §5, §6
# [12] = substrate: O=C(Cc1ccccc1)Nc1ccc([N+](=O)[O-])c(C(=O)O)c1; test: as above; conditions: other: B:L56K; 0.1M NaH2PO4, pH 7.5, 25° C.; pH 7.5; 25.0 °C
# Method: as §1, §2
# as §3, with “NIPAB. […]” for “NIPAB.”
# as §5, §6
# [13] = substrate: CC1(C)S[C@@H]2[C@H](NC(=O)COc3ccccc3)C(=O)N2[C@H]1C(=O)O; test: as above; conditions: other: B:L56K; 40 mM NaH2PO4, pH 7.5, 37° C.; pH 7.5; 37.0 °C
# Method: as §1, §2
# as §3, with “NIPAB. […]” for “NIPAB.”
# as §5, §6
protein,measurement,setting,value
"Alcaligenes faecalis Penicillin G acylase, wild type (α subunit SEQ ID NO:27, β subunit SEQ ID NO:32) (Alcaligenes faecalis) (protein, alpha 202 aa, beta 551 aa; likely recombinant, E. coli host) chain 1: QVQSVEVMRDSYGVPHVFADSHYGLYYGYGYAVAQDRLFQMDMARRSFVGTTAAVLGPGEQDAYVKYDMQVRQNFTPASIQRQIAALSKDERDIFRGYADGYNAYLEQVRRRPELLPKEYVDFDFQPEPLTDFDVVMIWVGSMANRFSDTNLEVTALAMRQSLEKQHGPERGRALFDELLWINDTTAPTTVPAPAAEHKPQA chain 2: SNLWSTRPERVQEGSTVLINGPQFGWYNPAYTYGIGLHGAGFDVVGNTPFAYPIVLFGTNSEIAWGATAGPQDVVDIYQEKLNPSRADQYWFNNAWRTMEQRKERIQVRGQADREMTIWRTVHGPVMQFDYDQGAAYSKKRSWDGYEVQSLLAWLNVAKARNWTEFLDQASKMAISINWYYADKHGNIGYVSPAFLPQRPADQDIRVPAKGDGSMEWLGIKSFDAIPKAYNPPQGYLVNWNNKPAPDKTNTDTYYWTYGDRMNELVSQYQQKDLFSVQEIWEFNQKASYSDVNWRYFRPHLEKLAQQLPADDSSKAALTMLLAWDGMEQDQGGQNAGPARVLFKTWLEEMYKQVLMPVVPESHRAMYSQTGFATQQGPNPGSINLSMGTKVLLRALVLEAHPDPKRVNVFGERSSQEIMHTALQNAQARLSQEQGAQMARWTMPTSVHRFSDKNFTGTPQTMPGNTFAFTGYQNRGTENNRVVFDAKGVEFCDAMPPGQSGFTDRNGVRSPHYEDQLKLYENFECKTMDVTHADIRRNAQSSTMLLIQPQP",Km,[1],8600 µM
same,Vmax,[1],27.5 U/mg
same,Km,[2],1 µM
same,Vmax,[2],12.5 U/mg
same,Km,[3],700 µM
same,Vmax,[3],23.5 U/mg
same,Km,[4],2 µM
same,Vmax,[4],45.5 U/mg
same,Km,[5],14000 µM
same,Vmax,[5],.9 U/mg
same,Km,[6],4 µM
same,Vmax,[6],37.0 U/mg
same,Km,[7],18 µM
same,Vmax,[7],4.0 U/mg
"Alcaligenes faecalis Penicillin G acylase mutant B:L56K (Alcaligenes faecalis; L321K) (protein, alpha 202 aa, beta 551 aa; recombinant, E. coli host) chain 1: QVQSVEVMRDSYGVPHVFADSHYGLYYGYGYAVAQDRLFQMDMARRSFVGTTAAVLGPGEQDAYVKYDMQVRQNFTPASIQRQIAALSKDERDIFRGYADGYNAYLEQVRRRPELLPKEYVDFDFQPEPLTDFDVVMIWVGSMANRFSDTNLEVTALAMRQSLEKQHGPERGRALFDELLWINDTTAPTTVPAPAAEHKPQA chain 2: SNLWSTRPERVQEGSTVLINGPQFGWYNPAYTYGIGLHGAGFDVVGNTPFAYPIVKFGTNSEIAWGATAGPQDVVDIYQEKLNPSRADQYWFNNAWRTMEQRKERIQVRGQADREMTIWRTVHGPVMQFDYDQGAAYSKKRSWDGYEVQSLLAWLNVAKARNWTEFLDQASKMAISINWYYADKHGNIGYVSPAFLPQRPADQDIRVPAKGDGSMEWLGIKSFDAIPKAYNPPQGYLVNWNNKPAPDKTNTDTYYWTYGDRMNELVSQYQQKDLFSVQEIWEFNQKASYSDVNWRYFRPHLEKLAQQLPADDSSKAALTMLLAWDGMEQDQGGQNAGPARVLFKTWLEEMYKQVLMPVVPESHRAMYSQTGFATQQGPNPGSINLSMGTKVLLRALVLEAHPDPKRVNVFGERSSQEIMHTALQNAQARLSQEQGAQMARWTMPTSVHRFSDKNFTGTPQTMPGNTFAFTGYQNRGTENNRVVFDAKGVEFCDAMPPGQSGFTDRNGVRSPHYEDQLKLYENFECKTMDVTHADIRRNAQSSTMLLIQPQP",Km,[8],49000 µM
same,Vmax,[8],18.2 U/mg
same,Km,[9],10 µM
same,Vmax,[9],25.5 U/mg
same,Km,[10],1700 µM
same,Vmax,[10],20.9 U/mg
same,Km,[11],1 µM
same,Vmax,[11],36.4 U/mg
same,Km,[12],28 µM
same,Vmax,[12],47.3 U/mg
same,Km,[13],35 µM
same,Vmax,[13],15.5 U/mg
